In general, Kd refers to the equilibrium constant for the complex coming apart. The low end stands for higher affinity, the high end for lower affinity. For orientation: koff means the rate constant with which the complex falls apart. A low value points to a long-lived complex. What is called kon is the rate constant with which the complex forms. Lower therefore signals slower complex formation.

T1: Activin A (human, UniProt P08476 311-426)
T1 construct: Homodimer of two βA subunits; bought from R&D Systems (#338-AC); also called inhibin-βA dimer; human Activin A
T1 sequence: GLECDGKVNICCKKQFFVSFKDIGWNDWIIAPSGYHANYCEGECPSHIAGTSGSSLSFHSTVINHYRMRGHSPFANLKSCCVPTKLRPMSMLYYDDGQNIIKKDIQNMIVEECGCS

T2: Activin A (human, UniProt P08476 311-426)
T2 sequence: T1 sequence

T3: Activin AB (human, UniProt P08476 311-426; P09529 293-407)
T3 construct: Heterodimer of one betaA and one betaB subunit; bought (R&D Systems #1006-AB-005 / #1066-AB)
T3 chain 1: T1 sequence
T3 chain 2: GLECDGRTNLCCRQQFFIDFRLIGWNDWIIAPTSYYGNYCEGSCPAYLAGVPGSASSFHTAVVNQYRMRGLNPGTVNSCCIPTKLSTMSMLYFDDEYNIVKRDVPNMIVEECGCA

T4: Activin AC (human, UniProt P55103 237-352)
T4 construct: Heterodimer of one betaA and one betaC subunit; bought (R&D Systems #4879-AC)
T4 sequence 1: T1 sequence
T4 sequence 2: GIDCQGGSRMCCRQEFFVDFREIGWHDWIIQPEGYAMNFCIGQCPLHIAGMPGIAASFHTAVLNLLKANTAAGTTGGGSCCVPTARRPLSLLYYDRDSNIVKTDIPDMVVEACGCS

B1: H2aM10965N (antibody, mouse IgG2a, V domains shown)
VH: RVQLVQSGSEVKKPGASVKVSCRASGYIFTSYDINWVRQATGQGLEWMGWMNPNNGNTAYTQKFQGRVTMTRNTSISTAYMELSSLRSEDTAVYYCARKGLLWFGKLLGYGMDVWGQGTTVTVSS
VL: not shown
B2: H4H10433P2 (antibody, human IgG4, V domains shown)
VH: EVQLVESGGGLVQAGRSLRLSCEASGFTFDDYGMHWVRQGPGKGLEWVSGISWNSGNIDYADSVKGRFTISRDNAKTSLYLQMNSLKTDDTALYFCAKDAVGFNWNYFLFDYWGQGTLVTVSS
VL: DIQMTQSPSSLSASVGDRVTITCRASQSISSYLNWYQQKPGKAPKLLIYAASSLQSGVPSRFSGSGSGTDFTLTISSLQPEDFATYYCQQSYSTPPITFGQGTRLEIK
B3: H4H10437P2 (antibody, human IgG4, V domains shown)
VH: EVQLVESGGGLVQPGRSLRLSCAASGFTFDDYAMHWVRQAPGKGLEWVSGISWNSGSIGYADSVKGRFTISRDNAKNSLYLQMNSLRAEDTALYYCAKDIMGNWDYFYGMDVWGQGTTVTVSS
VL: not shown
B4: H4H10426P (antibody, human IgG4, V domains shown)
VH: EVQLVESGGNLVQSGRSLRLSCTASGFAFDDFAMHWVRQVPGKGLEWVSGISWNSDTIGYADSVKGRFTISRDNAQNSLFLQMDSLRAEDTALYYCVKDMVRGLIGYYYYGMDVWGQGTTVTVSS
VL: EIVLTQSPAILSLSPGERAILSCRASQSIYTYLSWYQQTPGRAPRLLIYETSSRATGIPARFIGSGSGTDFTLTISSLEPEDFAFYYCQHRSDWPPTFGQGTKLEIK
B5: H4H10438P2 (antibody, human IgG4, V domains shown)
VH: EVQLVESGGGLVQPGRSLRLSCAASGFTFDDNAMHWVRQPPGKGLEWVSGISWNSGSIGYADSVKGRFTISRDNAKNSLYLQMNSLRAEDTALYYCAKDINDILTGYPLFDYWGQGTLVTVSS
VL: not shown
B6: H4H10424P (antibody, human IgG4, V domains shown)
VH: QVQLVESGGGVVQPGRSLRLSCAASGFTFSSYGMHWVRQAPGKGLEWVAVIWYDGSNKYNADSVKGRFTISRDNSKNTVYLQMNSLRAEDTAVYYCARARNYDILTGYYNLGMDVWGQGTTVTVSS
VL: DIQMTQSPSSLSASVGDRVTITCRASQGIRNDLGWYQQKPGKAPKRLIYAASSLQSGVPSRFSGSGSGTEFTLTISSLQPEDFATYYCLQHNSYPYTFGQGTKLEIK
B7: H4H10445P2 (antibody, human IgG4, V domains shown)
VH: QVQLQESGPGLVKPSETLSLICSVSGGSFSSHFWSWIRQPPGKGLEWIGYVLYSGGTNYNPSLKSRVTISVDTSKNQFFLKLSSVTAADTADYYCARAISGITFGGIIVPGSFDIWGQGTMVTVSS
VL: not shown
B8: H4H10447P2 (antibody, human IgG4, V domains shown)
VH: B7 VH with I21T, V51I, L52H, F79S, S83T, I107M, I115V, Q118E
VL: not shown
B9: H4H10423P (antibody, human IgG4, V domains shown)
VH: QVQLQQSGPGLLKPSQTLSLTCAISGDSVSSNSAAWSWIRQSPSRGLEWLGRTYYRANWFNDYALSVKSRITINPVTSTNHFSLQLHSVTPEDTAVYYCAREGALGYYFDSWGQGTLVTVSS
VL: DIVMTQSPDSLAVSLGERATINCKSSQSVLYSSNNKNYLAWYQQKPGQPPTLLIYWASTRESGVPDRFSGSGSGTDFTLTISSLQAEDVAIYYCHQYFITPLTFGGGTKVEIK
B10: H2aM10965N (antibody, mouse IgG2a, V domains shown)
VH: B1 VH
VL: not shown
B11: H4H10452P2 (antibody, human IgG4, V domains shown)
VH: QVQLQESGPGLVKPSETLSLTCTVSGGSFSSHFWNWIRQSPGRGLEWIGYIYYSGGTNYNPSFKSRVTMSVDTSKNQFSLKLSSVTAADTAVFYCARARSGITFGGVLVPGSFDIWGQGTMVTVSS
VL: not shown
B12: H4H10437P2 (antibody, human IgG4, V domains shown)
VH: B3 VH
VL: not shown
B13: H4H10426P (antibody, human IgG4, V domains shown)
VH: B4 VH
VL: B4 VL
B14: H4H10438P2 (antibody, human IgG4, V domains shown)
VH: B5 VH
VL: not shown
B15: H4H10424P (antibody, human IgG4, V domains shown)
VH: B6 VH
VL: B6 VL
B16: H4H10448P2 (antibody, human IgG4, V domains shown)
VH: QVQLQESGPGLVKPSETLSLTCTVSGGTFSSHFWSWIRQPPGKGLEWIGYIFYTGGTNHNPSLKSRVTISIDTSKNQFSLKLTSVTAADTAVYYCARARSGITFGGVIVPGSFDIWGQGTMVTVSS
VL: not shown

Residue numbers refer to the chain shown, from its start.

The first assay has as its target T1, Activin A. Briefly: SPR, captured mAb, 25C. On the procedure: (§1) Antibody-antigen association was monitored for 240 seconds while dissociation in buffer was monitored for 600 seconds. Kinetic association and dissociation rate constants were determined by processing and fitting the data using Scrubber software version 2.0c. Binding equilibrium dissociation constants (KD) and dissociative half-lives (t_{1/2}) were then calculated from the kinetic rate constants as: KD (M)=kd/kₐ and t_{1/2} (min)=[ln 2/(60*kd)]. (NB=no binding observed under the conditions used; NT=not tested).
With B1, the “Activin A-20 nM (RU)” value was 76 RU; the affinity, expressed as Kd, was 0.745 nM; the koff was 0.0011 s⁻¹; the kon was 1.48e+06 M⁻¹ s⁻¹. Further, the t1/2 is 10 min.
Taken in the same sequence, the figures for B2 were 16 RU, 0.0406 nM, 0.000577 s⁻¹, 1.42e+07 M⁻¹ s⁻¹ and 20 min.
The matching figures for B3: 30 RU, 0.134 nM, 0.00213 s⁻¹, 1.58e+07 M⁻¹ s⁻¹ and 5 min.
The matching figures for B4: 23 RU, 0.0595 nM, 0.0007 s⁻¹, 1.18e+07 M⁻¹ s⁻¹ and 16 min.
On to B5, for which the “Activin A-20 nM (RU)” value came out at 25 RU, binding was put at a Kd of 0.0492 nM, the koff was 0.000588 s⁻¹ and the on-rate (kon) stood at 1.2e+07 M⁻¹ s⁻¹. The molecule further came in with a t1/2 of 20 min.
The matching figures for B6: 82 RU, 0.229 nM, 0.000719 s⁻¹, 3.14e+06 M⁻¹ s⁻¹ and 16 min.

Another assay deals with T1, Activin A. The experiment in a line: SPR, captured mAb, 37C. As to the method:
as §1
In the case of B1, the “Activin A-20 nM (RU)” value stood at 80 RU, binding was characterised by a dissociation constant (Kd) of 1.77 nM, the koff was determined as 0.00415 s⁻¹ and the kon amounted to 2.35e+06 M⁻¹ s⁻¹. The same molecule came in with a t1/2 of 3 min.
In the case of B2, the “Activin A-20 nM (RU)” value worked out at 12 RU, the Kd stood at 0.0537 nM, the koff was 0.00107 s⁻¹ and the kon stood at 2e+07 M⁻¹ s⁻¹. The molecule also registered a t1/2 of 11 min.
The matching figures for B3: 20 RU, 0.229 nM, 0.00468 s⁻¹, 2.04e+07 M⁻¹ s⁻¹ and 2 min.
The matching figures for B4: 21 RU, 0.123 nM, 0.00198 s⁻¹, 1.61e+07 M⁻¹ s⁻¹ and 6 min.
Taken in the same sequence, the figures for B5 were 18 RU, 0.127 nM, 0.00238 s⁻¹, 1.87e+07 M⁻¹ s⁻¹ and 5 min.
On to B6, for which the “Activin A-20 nM (RU)” value is 58 RU; the affinity, expressed as Kd, was 0.794 nM; the koff was 0.00364 s⁻¹; the kon came out at 4.59e+06 M⁻¹ s⁻¹. Moreover, the t1/2 is 3 min.

The target in a further assay is T2, Activin A. The experiment in a line: cell-based or functional assay.
Turning to B7, the “IC50 [M], inhibition of 100 pM Activin A in A204/CAGAx12-Luc Smad2/3-luciferase bioassay” value turned out to be 5.3e-11 M.
On the same count and under the same terms, as for B8, the figure is 7.8e-11 M; as for B9, 2e-10 M.
Still for that read-out and setting: as for B10, the figure is 3.5e-09 M; as for B11, 5.8e-11 M; as for B12, 2.9e-10 M.
Still for that read-out and setting: the value for B13 was 2.3e-10 M; that for B14 was 2.6e-10 M.
For the molecule B15, the “IC50 [M], inhibition of 100 pM Activin A in A204/CAGAx12-Luc Smad2/3-luciferase bioassay” value amounted to 7.6e-10 M.
Same read-out and setting: the value for B16 was 4.6e-11 M.

The next assay has as its target T3, Activin AB. Briefly: SPR (Biacore), mAb captured on anti-Fc, Activin AB injected, 25 C. As to the method: as §1
Background: In SPR one partner is held on a chip, and binding of the other changes the refractive index at the surface.
For B9, the “50 nM Ag Bound (RU)” value was 14.7 RU, the Kd stood at 33.1 nM, the koff came to 0.0203 s⁻¹ and the kon was 613000 M⁻¹ s⁻¹. This molecule displayed a t1/2 of 0.6 min.

Another assay has as its target T3, Activin AB. The experiment in a line: SPR (Biacore), mAb captured on anti-Fc, Activin AB injected, 37 C. As to the method:
as §1
With B9, the “50 nM Ag Bound (RU)” value is 21.7 RU, the Kd worked out at 24.2 nM, the koff was found to be 0.0213 s⁻¹ and the kon was determined as 880000 M⁻¹ s⁻¹. The same molecule registered a t1/2 of 0.5 min.

The target in another assay is T4, Activin AC. The experiment in a line: SPR (Biacore), mAb captured on anti-Fc, Activin AC injected, 25 C. As to the method: as §1
On to B9, for which the “50 nM Ag Bound (RU)” value is -0.8 RU.

The target of the next assay is T4, Activin AC. Briefly: SPR (Biacore), mAb captured on anti-Fc, Activin AC injected, 37 C. On the procedure: as §1
Regarding B9, the “50 nM Ag Bound (RU)” value came to 0 RU.
